The text below walks through data of patent US20250361297A1, “ANTI- SIGLEC-15 BINDING MOLECULES AND METHODS OF USE” (ADAPTAM THERAPEUTICS, S.L., priority 2024, published 2025).

The labels stand for the following.
B1: ZLA-1243-E01-MMAE (conjugate)
VH: QVQLVQSGGGLVQPGRSLRLSCAASGFTFDDYAMHWVRQAPGKGLEWVSGISWNSGSIGYADSVKGRFTISRDNAKNSLYLQMNSLRAEDTALYYCAKGLWPSYDLDAFDIWGQGTMVTVSS
VL: QSALTQPASVSGSPGQSITLSCTGTSSDVGAYNFVSWYQQHPGTAPKLMIYEVSNRPSGVSDRFSGSKSGNTASLTISGLQAEDEADYYCSSYTSTIPPFVFGTGTKVTVL
B2: S15B1-VH1 + VL2: humanized S15B1 antibody, humanized VH1 (SEQ ID NO: 103) with humanized VL2 (antibody, V domains shown)
VH: QVQLVQSGAEVKKPGASVKVSCKASGYAFSSSWMNWVRQAPGQGLEWIGRIYPGHGETNYNGKFKDRVTMTADTSTSTVYMELSSLRSEDTAVYFCARVDNSDPYYFDYWGQGTTVTVSS
VL: DIVLTQSPASLAVSPGQRATITCRASKSVSTSGYSYMHWYQQKPGQPPKLLIYLASNLESGVPARFSGSGSGTDFTLTINPVEAEDTATYYCQHGRELPFTFGGGTKLEIK
B3: S15B1-VH4 + VL1: humanized S15B1 antibody, humanized VH4 with humanized VL1 (antibody, V domains shown)
VH: B2 VH with R38K, V68A, T74K
VL: B2 VL with T89N
B4: S15B1-VH2 + VL2: humanized S15B1 antibody, humanized VH2 with humanized VL2 (antibody, V domains shown)
VH: B2 VH
VL: B2 VL
B5: S15B1-VH4 + VL2: humanized S15B1 antibody, humanized VH4 with humanized VL2 (antibody, V domains shown)
VH: B2 VH with R38K, V68A, T74K
VL: B2 VL
B6: S15B1-VH3 + VL1: humanized S15B1 antibody, humanized VH3 with humanized VL1 (antibody, V domains shown)
VH: B2 VH with R38K, V68A
VL: B2 VL with T89N
B7: S15B1-VH1 + VL1: humanized S15B1 antibody, humanized VH1 (SEQ ID NO: 103) with humanized VL1 (antibody, V domains shown)
VH: B2 VH
VL: B2 VL with T89N
B8: S15B1-VH3 + VL2: humanized S15B1 antibody, humanized VH3 with humanized VL2 (antibody, V domains shown)
VH: B2 VH with R38K, V68A
VL: B2 VL
B9: S15B1-VH2 + VL1: humanized S15B1 antibody, humanized VH2 with humanized VL1 (antibody, V domains shown)
VH: B2 VH
VL: B2 VL with T89N

Where a chain is given by its changes, count along the chain named.

One test concerns the target T1, THP-1 cells overexpressing human Siglec-15 (Homo sapiens, UniProt Q6ZMC9).
T1 construct: Human full-length Siglec-15 and CD19 genes were synthesized and cloned into the pLV-MSCV lentiviral vector; His; expressed in transfected cells; host or cells: THP-1 (lentiviral overexpression, 'THP-1 S15 OE')
T1 sequence (Q6ZMC9 20-328): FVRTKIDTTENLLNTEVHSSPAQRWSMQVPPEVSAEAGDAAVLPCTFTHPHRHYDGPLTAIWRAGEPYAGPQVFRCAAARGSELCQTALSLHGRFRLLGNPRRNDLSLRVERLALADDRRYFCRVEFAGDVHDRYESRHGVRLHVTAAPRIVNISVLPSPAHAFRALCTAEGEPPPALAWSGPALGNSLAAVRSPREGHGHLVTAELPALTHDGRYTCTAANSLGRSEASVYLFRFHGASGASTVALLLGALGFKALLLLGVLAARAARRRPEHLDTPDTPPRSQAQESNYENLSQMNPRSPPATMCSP
The experiment in a line: Binding of anti-Siglec-15 ADCs to THP-1 S15+ cells (flow cytometry). Particulars: relative to Trastuzumab-based ADC negative control. As to the method: Binding of anti-Siglec-15 ADCs to THP-1 S15+ cells: 50,000 cells/well of THP-1 S15 OE cells were added to a round bottom 96 well plate, centrifuged at 450×G for 5 minutes and the supernatant discarded. Human anti-siglec-15 IgG ADCs were prepared (starting at 198 nM, 3-fold serial dilution in staining buffer) and the cells were resuspended in 100 μl of ADC. Cells were incubated for 40 minutes on ice and 100 μl of staining buffer were added to each well, followed by centrifugation at 450×G for 5 minutes and supernatants were discarded. The secondary antibody was prepared (anti-human IgG-PE at 1:500 dilution) and added 100 μl to each well. Cells were incubated for 40 minutes on ice and 100 μl of staining buffer were added to each well followed by centrifugation at 450× G for 5 minutes to then discard the supernatant. Cells were resuspended in 150 μl of staining buffer and acquired in a flow cytometer.
(In general: Flow cytometry measures light scatter and fluorescence of single cells or particles in a stream.)
Turning to B1, the “binding capacity to THP-1 cells overexpressing human Siglec-15” value is recorded as “increased binding capacity”.

Another test concerns the target T2, recombinant human Siglec-15 protein (Homo sapiens, UniProt Q6ZMC9).
T2 construct: purchased Bonopusbio CW70-50 ug
T2 sequence (Q6ZMC9 20-263 limits assumed): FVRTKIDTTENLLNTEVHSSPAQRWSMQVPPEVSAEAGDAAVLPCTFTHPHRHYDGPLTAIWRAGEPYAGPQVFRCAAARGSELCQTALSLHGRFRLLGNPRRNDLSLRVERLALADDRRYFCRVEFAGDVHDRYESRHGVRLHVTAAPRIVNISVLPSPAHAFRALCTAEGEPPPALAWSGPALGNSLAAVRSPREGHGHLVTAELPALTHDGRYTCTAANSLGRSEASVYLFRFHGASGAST
Kind of test: BIACORE surface plasmon resonance binding affinity. Particulars: SPR; antibody as ligand, human Siglec-15 as analyte; 1:1 Langmuir model. An excerpt: Binding affinity determination of anti-Siglec-15 monoclonal antibodies using BIACORE surface plasmon resonance: The purified anti-Siglec-15 monoclonal antibodies (mAbs) were characterized for binding affinity and binding kinetics by Biacore T200 system (GE healthcare, Pittsburgh, PA, USA). Anti-Siglec-15 antibodies were covalently linked to a CM5 chip (carboxy methyl dextran coated chip, GE healthcare, Cat #BR-1005-30) via primary amines, using a standard amine coupling kit provided by Biacore (GE healthcare, Pittsburgh, PA, USA). Un-reacted moieties on the biosensor surface were blocked with ethanolamine. Then, serially diluted recombinant human Siglec-15-his protein (Bonopusbio, CW70-50 ug), 2-fold serial dilution in HBS-EP buffer starting at 80 nM, were respectively flown onto the chip at a flow rate of […]. The antigen-antibody association kinetics was followed for 2 minutes, and the dissociation kinetics was followed for 10 minutes. The association and dissociation curves were fit to a 1:1 Langmuir binding model using BIAcore evaluation software. The dissociation rate (kd) and association constant (ka) rate constants were obtained using Evaluation Software. The equilibrium dissociation constant (KD) was calculated from the ratio of kd over ka.
(SPR reads the build-up and loss of mass on a sensor chip optically.)
In the case of B2, the “ka” value was found to be 3.54e+06 M⁻¹ s⁻¹ and the “kd” value was determined as 0.000563 s⁻¹.

As for B3, the “ka” value turned out to be 4.1e+06 M⁻¹ s⁻¹ and the “kd” value worked out at 0.000385 s⁻¹.

Turning to B4, the “ka” value is 3.44e+06 M⁻¹ s⁻¹ and the “kd” value came to 0.000326 s⁻¹.

On to B5, for which the “ka” value was 1.69e+06 M⁻¹ s⁻¹ and the “kd” value was found to be 0.000234 s⁻¹.

Turning to B6, the “ka” value came to 3.73e+06 M⁻¹ s⁻¹ and the “kd” value is 0.000257 s⁻¹.

On to B7, for which the “ka” value came to 3.35e+06 M⁻¹ s⁻¹ and the “kd” value worked out at 0.000455 s⁻¹.

Take B8: the “ka” value is 4.49e+06 M⁻¹ s⁻¹ and the “kd” value amounted to 0.000293 s⁻¹.

Turning to B9, the “ka” value is 3.8e+06 M⁻¹ s⁻¹ and the “kd” value worked out at 0.000473 s⁻¹.
